To fix the notation:
B1: HA-tagged HACE1 wild-type [human] / myc-Rac1 Q61L [not stated] (parent complex)
chain 1: MERAMEQLNRLTRSLRRARTVELPEDNETAVYTLMPMVMADQHRSVSELLSNSKFDVNYAFGRVKRSLLHIAANCGSVECLVLLLKKGANPNYQDISGCTPLHLAARNGQKKCMSKLLEYSADVNICNNEGLTAIHWLAVNGRTELLHDLVQHVSDVDVEDAMGQTALHVACQNGHKTTVQCLLDSGADINRPNVSGATPLYFACSHGQRDTAQILLLRGAKYLPDKNGVTPLDLCVQGGYGETCEVLIQYHPRLFQTIIQMTQNEDLRENMLRQVLEHLSQQSESQYLKILTSLAEVATTNGHKLLSLSSNYDAQMKSLLRIVRMFCHVFRIGPSSPSNGIDMGYNGNKTPRSQVFKPLELLWHSLDEWLVLIATELMKNKRDSTEITSILLKQKGQDQDAASIPPFEPPGPGSYENLSTGTRESKPDALAGRQEASADCQDVISMTANRLSAVIQAFYMCCSCQMPPGMTSPRFIEFVCKHDEVLKCFVNRNPKIIFDHFHFLLECPELMSRFMHIIKAQPFKDRCEWFYEHLHSGQPDSDMVHRPVNENDILLVHRDSIFRSSCEVVSKANCAKLKQGIAVRFHGEEGMGQGVVREWFDILSNEIVNPDYALFTQSADGTTFQPNSNSYVNPDHLNYFRFAGQILGLALNHRQLVNIYFTRSFYKHILGIPVNYQDVASIDPEYAKNLQWILDNDISDLGLELTFSVETDVFGAMEEVPLKPGGGSILVTQNNKAEYVQLVTELRMTRAIQPQINAFLQGFHMFIPPSLIQLFDEYELELLLSGMPEIDVSDWIKNTEYTSGYEREDPVIQWFWEVVEDITQEERVLLLQFVTGSSRVPHGGFANIMGGSGLQNFTIAAVPYTPNLLPTSSTCINMLKLPEYPSKEILKDRLLVALHCGSYGYTMA
chain 2: not shown

In this test the parent is B1. The test is described as follows: co-immunoprecipitation (anti-myc IP), quantified; cells co-transfected with myc-Rac1 Q61L and HA-tagged HACE1 mutants; n ≥ 4 biological replicates; parent: 1; read off a plot.
Consider chain 1 M114V, for which the ratio to parent is roughly 2.3. Next, chain 1 G175S: roughly 0.18; chain 1 G175C: roughly 0.14. For chain 1 A204T the value was roughly 0.11. For chain 1 N174A the value was roughly 0.26; for chain 1 V140A, roughly 3.2. chain 1 V140L: the ratio to parent was roughly 0.55.

Consider chain 1 Q173A, for which the ratio to parent is roughly 0.28.

For the origin of these results see publication PMC5357957 (2017).
